The record followed here is patent US20240239881A1 (Innovent, published 2024).

Residue numbers refer to the chain shown, from its start.

Usually Kd stands for the free concentration of one partner at which half of the binding sites on the other are occupied at equilibrium, for simple one-to-one binding. High values mean weaker binding, low ones tighter binding. In general, koff refers to a measure of how fast the partners let go of each other. A word on the kon: it is the second-order rate constant of association. In general, IC50 refers to the concentration that inhibits the measured activity by half.

In one assay the target is T1, Human Ang1 (human, UniProt Q15389 20-498, limits assumed).
T1 construct: also called hAng1
T1 sequence (looked up): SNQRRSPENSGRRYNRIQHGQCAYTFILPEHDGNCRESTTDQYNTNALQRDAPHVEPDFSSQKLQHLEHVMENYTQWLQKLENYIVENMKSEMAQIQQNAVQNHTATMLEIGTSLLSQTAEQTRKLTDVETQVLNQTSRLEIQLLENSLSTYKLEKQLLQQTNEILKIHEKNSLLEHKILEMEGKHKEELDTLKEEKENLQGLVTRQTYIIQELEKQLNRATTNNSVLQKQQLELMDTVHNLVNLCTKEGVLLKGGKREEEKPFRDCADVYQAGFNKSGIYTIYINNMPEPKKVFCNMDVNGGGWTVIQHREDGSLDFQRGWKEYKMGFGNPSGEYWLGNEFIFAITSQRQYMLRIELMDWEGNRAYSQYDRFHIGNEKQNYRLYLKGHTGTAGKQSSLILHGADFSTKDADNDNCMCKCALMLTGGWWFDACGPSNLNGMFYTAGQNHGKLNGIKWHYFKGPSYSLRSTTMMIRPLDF
Kind of assay: ForteBio BLI, antibody on AHQ sensor. The method, then:
The equilibrium dissociation constants (KD) of the above exemplary antibodies of the present invention binding to human Ang2 (h Ang2), cynomolgus monkey Ang2 (cAng2), murine Ang2 (mAng2), and human Ang1 (hAng1) were determined using the biological optical interferometry (ForteBio) assay.
The ForteBio affinity assay was performed according to the existing method (Estep, P et al., High throughput solution-based measurement of antibody-antigen affinity and epitope binning. MAbs, 2013.5 (2): p. 270-8). Briefly, the sensor was equilibrated in the assay buffer off-line for 30 min, followed by on-line detection for 60 s to establish the baseline. Then the purified antibodies obtained as described above were loaded on-line onto an AHQ sensor (ForteBio) for ForteBio affinity assay. The sensors with loaded antibodies were exposed to 100 nM of hAng2, cAng2, mAng2, and hAng1 antigens for 5 min, and then were transferred into the assay buffer for dissociation for 5 min to determine the dissociation rate. Kinetic analysis was performed using a 1:1 binding model.
On the technique in general: Biolayer interferometry detects binding as a change in optical thickness at a sensor tip.

Another assay addresses T2, Rhesus ANG2 (rhesus, UniProt F6QXG0 19-496).
T2 sequence: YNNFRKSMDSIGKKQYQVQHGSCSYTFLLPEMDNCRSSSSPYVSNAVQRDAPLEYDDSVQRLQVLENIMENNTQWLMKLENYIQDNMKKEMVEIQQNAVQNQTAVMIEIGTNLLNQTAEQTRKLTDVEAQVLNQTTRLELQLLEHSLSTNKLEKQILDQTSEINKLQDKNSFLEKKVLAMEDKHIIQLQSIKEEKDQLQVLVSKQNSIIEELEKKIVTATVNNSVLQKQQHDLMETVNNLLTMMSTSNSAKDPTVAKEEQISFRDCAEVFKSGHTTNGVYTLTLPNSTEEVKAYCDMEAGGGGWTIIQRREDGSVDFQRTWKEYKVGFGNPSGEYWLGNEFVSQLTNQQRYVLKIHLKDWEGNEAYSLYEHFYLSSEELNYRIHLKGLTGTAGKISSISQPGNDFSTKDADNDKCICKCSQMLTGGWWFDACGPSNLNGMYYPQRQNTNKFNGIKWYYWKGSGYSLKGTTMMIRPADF
In words: SPR, Biacore T200, antibody captured on Protein G chip, experiment 3. The method, then: The antibody was diluted to 1 μg/mL and was captured onto channel 2 for 30 s, and channel 1 was the blank control channel. The gradient-diluted Human ANG2, Rhesus ANG2, Rabbit ANG2, Rat ANG2 and Mouse ANG2 were sequentially injected into channels 1 and 2 of the chip, from low to high concentrations (0-32 nM), at a flow rate of 30 μL/min, with one concentration per cycle, and with 180 s association time and 1200 s dissociation time at 25° C. Finally, the chip was regenerated using Glycine pH 1.5 at 30 μL/min for 30 s. The affinity assay was repeated three times.
(Surface plasmon resonance follows binding to a sensor surface in real time, without labels.)

In assay [1] the target is T3, hAng2-Fc protein (Sino Biological, Cat No.: 10691-H02H) (human, UniProt O15123 19-496).
T3 construct: Bought fusion; also called human Ang2-Fc; human Ang2-hFc; not shown: human Fc of the bought fusion protein
T3 sequence: T2 sequence with V279I, L284F, V291I, A410G, G468A
Kind of assay: blocking assay by flow cytometry: antibody titrated against hAng2-Fc (2 ug/ml final); blocked binding to human Tie2 on 293-tie2 cells; anti-human IgG-PE, MFI. The method, then: The ability of hz81H10.4 and the control antibody Nesvacumab to block the binding of human Ang2-hFc to Tie2 on the cell surface was detected by flow cytometry (FACS).
The antigen hAng2-Fc protein (Sino Biological, Cat No.: 10691-H02H) was diluted to 4 μg/ml, and added to the plate wells at 50 μl/well. Antibodies (hz81H10.4 and control antibody Nesvacumab) prepared as described above were diluted at 2-fold with a total of 12 dilution points starting from the highest concentration of 800 nM, and added to the plate wells at 50 μl/well, and incubated in PBS on ice for 30 min, where the final concentration of the antigen was 2 μg/ml and the highest concentration of antibody was 400 nM. […] The cells were centrifuged at 300 g for 5 min, and after the supernatant was discarded, the cells were resuspended in the antigen-antibody mixture. The cells were incubated on ice for 30 min, and added with PBS at 100 μl/well, centrifuged at 300 g for 5 min, and washed with PBS once. A 100 μl of goat anti-human IgG-PE (Southern Biotech, Cat. No. 2040-09) diluted at 1:200 was added to each well and placed in an ice bath for 20 min. PBS was added at 100 μl/well, and the cells were centrifuged at 300 g for 5 min, and washed once with PBS. The cells were resuspended in 100 μl PBS and the fluorescence signals of the cells were detected by a flow cytometer (BD Biosciences). […]
A general note: In flow cytometry, cells or beads pass a laser one at a time.

B1: humanized antibody hz81H10.4 (antibody, human IgG1, kappa, V domains shown)
VH: EVQLVESGGGLVKPGGSLRLSCAASGFTFSNYWMNWVRQAPGKGLEWVAEIRLKSNNYATHYAESVKGRFTISRDVSKNTVYLQMNSLKTEDTAVYYCTDTAPFAYWGQGTLVTVSS
VL: DIQMTQSPSSLSASVGDRVTITCKASQDVGTDVAWYQQKPGKAPKLLIYWASTRHTGVPSRFSGSGSGTDFTLTISSLQPEDFATYYCQQYSSYPLTFGGGTKVEIKR
notes: also called IBI335
As to B1, the binding result with Human Ang1 was “no binding (tested: 100 nM)”. In the assay with Rhesus ANG2, this molecule yielded an equilibrium dissociation constant (Kd) of 0.13 nM, an off-rate (koff) of 4.03e-05 s⁻¹ and a kon of 311000 M⁻¹ s⁻¹. For the same molecule, in assay [1], the IC50 is 2.3 nM.
